# Patent publication US20220041736A1 (Amgen, published 2022)
# Positions count from the first letter of the chain named. In names and notes the source's numbering stands.
# T1: human 1-27 CD3ε-EpCAM (1-27 N-terminal amino acids of human CD3 epsilon, Flag tag, cynomolgus EpCAM) (human CD3 epsilon 1-27 / cynomolgus …)
# T1 construct: also called 1-27 CD3-EpCAM comprising the human 27 mer
# T1 chain: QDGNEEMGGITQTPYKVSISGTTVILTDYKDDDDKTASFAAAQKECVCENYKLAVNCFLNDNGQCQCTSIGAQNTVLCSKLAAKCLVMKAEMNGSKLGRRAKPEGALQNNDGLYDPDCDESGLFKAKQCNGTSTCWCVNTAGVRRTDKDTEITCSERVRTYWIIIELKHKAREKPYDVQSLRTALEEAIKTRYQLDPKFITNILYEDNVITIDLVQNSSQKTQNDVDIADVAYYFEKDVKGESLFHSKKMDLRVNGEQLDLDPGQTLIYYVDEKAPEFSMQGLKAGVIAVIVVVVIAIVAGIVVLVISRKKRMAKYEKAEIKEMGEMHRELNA
# T2: marmoset 1-27 CD3ε-EpCAM (Callithrix jacchus CD3 epsilon 1-27 / …)
# T2 construct: Transmembrane fusion on 293-HEK or CHO cells; also called 1-27 CD3-EpCAM comprising the marmoset 27 mer
# T2 chain: T1 chain with G9D, I10T, T13N, I25T
# T3: tamarin 1-27 CD3ε-EpCAM (Saguinus oedipus CD3 epsilon 1-27 / …)
# T3 construct: Transmembrane fusion on 293-HEK or CHO cells; also called 1-27 CD3-EpCAM comprising the tamarin 27 mer
# T3 chain: T1 chain with G9D, I10T, T13N, I25T
# T4: squirrel monkey 1-27 CD3ε-EpCAM (Saimiri sciureus CD3 epsilon 1-27 / …)
# T4 construct: Transmembrane fusion on 293-HEK or CHO cells; also called 1-27 CD3-EpCAM comprising the squirrel monkey 27 mer
# T4 chain: T1 chain with M7I, G9D, I10T, T13N, I25T
# T5: swine 1-27 CD3ε-EpCAM (Sus scrofa CD3 epsilon 1-27 / …)
# T5 construct: Negative control construct on 293-HEK or CHO cells; also called 1-27 CD3-EpCAM comprising the swine 27 mer
# T5 chain: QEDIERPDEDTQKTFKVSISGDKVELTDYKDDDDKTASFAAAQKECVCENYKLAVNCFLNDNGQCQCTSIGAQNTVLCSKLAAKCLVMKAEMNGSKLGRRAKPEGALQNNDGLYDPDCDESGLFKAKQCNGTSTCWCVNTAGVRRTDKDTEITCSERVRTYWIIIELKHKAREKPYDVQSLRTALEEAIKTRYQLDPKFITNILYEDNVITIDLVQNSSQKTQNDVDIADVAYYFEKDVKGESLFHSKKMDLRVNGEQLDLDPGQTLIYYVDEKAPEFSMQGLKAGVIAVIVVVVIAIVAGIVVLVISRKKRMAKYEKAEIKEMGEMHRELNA
# T6: human 1-27 CD3 BSA conjugate (peptide of the N-terminal amino acids 1-27 of human CD3 epsilon plus C-terminal … (human, printed as acetyl-QDGNEEMGGITQTPYKVSISGTTVILTC; C-terminal Cys 28 coupled to maleimide activated BSA)
# T6 construct: also called peptide-BSA conjugate
# T6 peptide: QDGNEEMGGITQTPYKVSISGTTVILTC
# B1: A2J HLP single-chain antibody (scFv)
# scFv: EVQLLESGGGLVQPGGSLKLSCAASGFTFNVYAMNWVRQAPGKGLEWVARIRSKYNNYATYYADSVKKRFTISRDDSKNTAYLQMNNLKTEDTAVYYCVRHGNFGNSYLSWWAYWGQGTLVTVSSGGGGSGGGGSGGGGSELVVTQEPSLTVSPGGTVTLTCRSSTGAVTSGYYPNWVQQKPGQAPRGLIGATDMRPSGTPARFSGSLLGGKAALTLSGVQPEDEAEYYCALWYSNRWVFGGGTKLTVLTGDYKDDDDKHHHHHH
# notes: Crude periplasmic preparation from pComb3H5BFlag/His; also called VH-VL-P of A2J
# B2: E2M HLP single-chain antibody (scFv)
# scFv: B1 scFv with V31G, K68E, G102R, W112F
# notes: Crude periplasmic preparation; also called VH-VL-P of E2M
# B3: anti-CD3 single domain antibody CD3 3D-H11 (VHH)
# VHH: EVQLVESGGGLVQPGGSLRLSCAASGFTFDDYGMSWVRQAPGKWLEWVSDISWNGGSTYYADSVKGRFTISRDNAENTLYLQMNSLKPDDTAVYYCAKMGEGGWGANDYWGQGTQVTVSS
# notes: Crude periplasmic preparation from pComb3H5BFlag/His; also called V CD3 3D-H11
# Columns and labels:
# [1] = molecular target: T7, 1-27 CD3-Fc (N-terminal amino acids 1-27 of the mature human CD3 epsilon chain fused to the hinge and Fc … (human)); test: ELISA, captured 1-27 CD3-Fc, crude periplasmic scFv
# T7 construct: Entry 229 is printed without the leader peptide; also called 27 aa huCD3ε; 1-27 CD3ε-Fc
# [2] = molecular target: T1, human 1-27 CD3ε-EpCAM (1-27 N-terminal …); test: FACS, transfected 293-HEK cells
# [3] = molecular target: T2, marmoset 1-27 CD3ε-EpCAM; test: FACS, transfected 293-HEK cells
# [4] = molecular target: T3, tamarin 1-27 CD3ε-EpCAM; test: FACS, transfected 293-HEK cells
# [5] = molecular target: T4, squirrel monkey 1-27 CD3ε-EpCAM; test: FACS, transfected 293-HEK cells
# [6] = molecular target: T5, swine 1-27 CD3ε-EpCAM; test: FACS, transfected 293-HEK cells, crude periplasmic scFv
# [7] = molecular target: T7, 1-27 CD3-Fc (N-terminal amino acids …); test: ELISA, immobilized antigen, crude periplasmic preparation
# [8] = molecular target: T6, human 1-27 CD3 BSA conjugate (peptide …); test: as above
# [9] = molecular target: T8, BSA (bovine serum albumin, blocking agent) (bovine, UniProt P02769 25-607); test: ELISA, blocked wells without antigen, crude periplasmic preparation
# T8 construct: also called bovine Albumin, fraction V
# T8 sequence (P02769 25-607 limits assumed): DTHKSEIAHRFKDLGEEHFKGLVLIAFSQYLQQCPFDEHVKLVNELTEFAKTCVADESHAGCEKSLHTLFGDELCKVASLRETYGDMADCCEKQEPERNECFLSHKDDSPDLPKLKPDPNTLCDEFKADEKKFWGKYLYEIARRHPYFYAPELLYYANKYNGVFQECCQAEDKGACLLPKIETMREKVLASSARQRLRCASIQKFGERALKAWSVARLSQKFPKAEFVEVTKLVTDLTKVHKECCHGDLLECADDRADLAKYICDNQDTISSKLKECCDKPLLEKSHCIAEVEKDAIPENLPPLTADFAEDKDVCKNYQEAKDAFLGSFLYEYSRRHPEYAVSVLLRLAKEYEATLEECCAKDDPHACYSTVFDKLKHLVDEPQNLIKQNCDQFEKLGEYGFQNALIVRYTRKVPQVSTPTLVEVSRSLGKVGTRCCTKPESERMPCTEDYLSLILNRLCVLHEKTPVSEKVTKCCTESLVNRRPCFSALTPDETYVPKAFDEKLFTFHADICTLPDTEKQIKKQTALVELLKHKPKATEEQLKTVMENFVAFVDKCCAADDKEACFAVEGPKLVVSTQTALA
binder,measurement,setting,value
B1,binding result,[1],binds
B2,binding result,[2],binds
same,binding result,[3],binds
same,binding result,[4],binds
same,binding result,[5],binds
same,binding result,[1],binds
same,binding result,[6],no binding
B3,binding result,[7],binds
same,binding result,[8],binds
same,binding result,[9],no binding
